Source: patent publication US20200102373A1 (COLORADO STATE UNIVERSITY RESEARCH FOUNDATION, published 2020)
Positions count from the first letter of the chain named.

Key:
[1] = biological target: T1, mitoNEET (Mito) fused to mCherry and a C-terminal smHA tag (Mito-mCh-smHA) (Homo sapiens (Human), UniProt Q9NZ45 1-33); experiment: live-cell imaging, U2OS cells, FB-GFP fluorescence at mitochondria over background
T1 construct: also called smHA tagged Mito
T1 peptide: YPYDVPDYA

[2] = biological target: T1, mitoNEET (Mito) fused to mCherry and a …; experiment: live-cell imaging, U2OS cells; reference Mito-mCh-1×HA
[3] = biological target: T2, mCherry-H2B without HA tag (mCh-H2B) (UniProt P06899 1-126); experiment: nuclear to cytoplasmic fluorescence ratio of FB-GFP in living U2OS cells lacking the HA tag
[4] = biological target: T2, mCherry-H2B without HA tag (mCh-H2B); experiment: nuclear to cytoplasmic fluorescence ratio of the GFP-fused scFv in living U2OS cells with mCh-H2B lacking the HA tag
[5] = biological target: T3, H2B-mCh-TrunTag; experiment: live-cell fluorescence imaging of U2OS cells co-expressing the GFP-fused scFv and H2B-mCh-TrunTag; co-localization in the nucleus
T3 construct: not shown: Histone H2B, mCherry and the linkers between the parts
T3 peptide: LPGRWKPKM

[6] = biological target: T4, H2B-mCh-OrigTag; experiment: live-cell fluorescence imaging of U2OS cells co-expressing the GFP-fused scFv and H2B-mCh-OrigTag; co-localization in the nucleus
T4 construct: not shown: Histone H2B, mCherry and the linkers between the parts
T4 peptide: MSLPGRWKPKM

B1: χ15F11^HA chimeric anti-HA scFv fused to mEGFP (HA frankenbody, FB-GFP), expressed in cells (scFv, not shown: large carriers)
scFv: MAEVKLVESGGGLVKPGGSLKLSCAASGFTFSSYGMSWVRQTPEKRLEWVATISRGGSYTYYPDSVKGRFTISRDNAKNTLYLQMSSLRSEDTAIYYCARRETYDEKGFAYWGQGTTLTVSSGGGGSGGGGSGGGGSDIVLTQSPASLTVSLGQRATISCKSSQSLLNSGNQKNYLTWYQQKPGQPPKLLIYWASTRESGIPARFSGSGSGTDFTLNIHPVEEEDAATYYCQNDNSHPLTFGAGTKLEIGGGGSGGGGSGGGGSGGGGSGGGGS
notes: also called 15F11-HA-FB; pCMV-15F11-HA-mEGFP
With B1 the “mitochondria to background fluorescent intensity ratio (Mito/Bg)” value [1] was 16.6 ratio, the “Mito/Bg ratio of smHA tagged Mito against 1×HA tagged Mito” value [2] was 4.7 times and the binding result [3] was “no binding”.

B2: χ2E2^HA chimeric anti-HA scFv fused to mEGFP (scFv, not shown: large carriers)
scFv: B1 scFv with K5Q, G12D, E44D, R89K, I95M, T117S, L118V, T149A, A243G
notes: also called 2E2-HA-FB; pCMV-2E2-HA-mEGFP
B2: no binding [4].

B3: χ15F11^HIV chimeric anti-HIV protease scFv fused to GFP (scFv)
scFv: MAEVKLVESGGGLVKPGGSLKLSCAASGFTFSRFGMHWVRQTPEKRLEWVAYISSGSSTIYYADTVKGRFTISRDNAKNTLYLQMSSLRSEDTAIYYCARSGGIERYDGTYYVMDYWGQGTTLTVSSGGGGSGGGGSGGGGSDIVLTQSPASLTVSLGQRATISCRASESVDYYGKSFMNWYQQKPGQPPKLLIYAASNQGSGIPARFSGSGSGTDFTLNIHPVEEEDAATYYCQQSKEVPWTFGAGTKLEI
notes: also called 15F11-HIV-FB; anti-HIV protease frankenbody
B3: binds [5]; binds [6].
